According to the supplement of paper PMC10065799, “High-throughput profiling of sequence recognition by tyrosine kinases and SH2 domains using bacterial peptide display” (eLife, 2023):

Each sequence was assayed on AncSZ (assay: phosphorylation enrichment, bacterial display (enrichment ratio); higher = better substrate or ligand; peptides without Tyr show the background).
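Also: 11-residue human phosphosite peptides and single-mutation variants displayed on the E. coli surface, counted by deep sequencing, each peptide's frequency after selection divided by its frequency in the unselected input library; frequency after pTyr selection over input frequency; kinase dosed for 20-30% of maximal phosphorylation in three min.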

Going from SEASGYQDNIA [DES_Y363] to NPQKSYFIHLF [WAS_Y83_R86H_YF], the phosphorylation enrichment rises from 0.778 to 0.93.

Going from KWHREYNFKFV [RICTOR_Y835_S837F_YF] to RRAKGYPIYLY [ITGB2_Y125_D128Y], the phosphorylation enrichment rises from 0.859 to 0.997.

Going from SVTRTYSPALN [TP53_Y126_C124R] to FPRTGYSVPFG [TGM1_Y370_L366P_YF], the phosphorylation enrichment rises from 0.445 to 0.686.

Compared with QAQMDYRRWQP [MPL_Y591_L594W], RLIEGYTGPFK [ZNF862_Y181] is higher in phosphorylation enrichment: 0.548 for the first, 1.59 for the second.

First: TEFIQYVRRKN [MAX_Y73_M74V_YF]
Second: NPQKSYLIRLY [WAS_Y83_F84L]
The phosphorylation enrichment of the first is lower: 0.66 for the first, 0.827 for the second.

Compared with PFTRNYYVRAV [CYBA_Y87], SLTCTYSPALN [TP53_Y126_V122L] is higher in phosphorylation enrichment: 1.16 for the first, 1.56 for the second.

Going from YFRDGCMPRQY [GSS_Y270_Y270C] to RHLREYPDLLN [DES_Y388_Q389P], the phosphorylation enrichment falls from 0.938 to 0.695.

Compared with IGNGFYFHVFS [MYBPC3_Y1136_R1138H_YF], DRLAVYIDRVP [LMNA_Y45_R50P] is higher in phosphorylation enrichment: 1.06 for the first, 1.09 for the second.

Going from DRLASYSDKVR [KRT10_Y160_L161S] to RVYRDYVLKSA [HTATIP2_Y111_D108Y], the phosphorylation enrichment rises from 0.578 to 1.07.

Compared with RLLVVYPRTQR [HBB_Y36_W38R], FAELVYTVFWH [ASS1_Y322_G324V] is higher in phosphorylation enrichment: 1.05 for the first, 2.15 for the second.

First: ELQDDYEDMME [SLC4A1_Y8]
Second: DEEDTYTMPST [PTK2_Y407]
The phosphorylation enrichment of the first is lower: 1.16 for the first, 3.8 for the second.

Going from AIDVGYRHIDC [AKR1B1_Y40] to LLTKVYVVEGS [ZMPSTE24_Y253_P248L], the phosphorylation enrichment rises from 0.637 to 1.65.

Compared with YEHVGYTTLNR [CHN1_Y148], KAWTIYHPEDS [ZBP1_Y165_R166H] is higher in phosphorylation enrichment: 0.72 for the first, 0.949 for the second.

First: NYGTNYRVGSS [CPO_Y278_K273N]
Second: VSSIPYGQPKQ [NEU1_Y251_G248S]
The phosphorylation enrichment of the first is lower: 0.458 for the first, 0.549 for the second.

First: PVQAAYEKVVA [HBB_Y131_Q132E]
Second: HFGCVYLGTLL [MET_Y1093_H1094L]
The phosphorylation enrichment of the first is lower: 0.855 for the first, 2.29 for the second.

Going from RHLREYQDLLI [DES_Y388_N393I] to SDRNLYSKNLV [CFAP58_Y501], the phosphorylation enrichment falls from 0.912 to 0.626.

For HNQDGYSYPSR [LDLR_Y845], the phosphorylation enrichment was 1.25.

The sequences below were run against EPHB1 (UniProt P54762) in the same assay as above.
EPHB1, sequence (P54762 whole entry, looked up): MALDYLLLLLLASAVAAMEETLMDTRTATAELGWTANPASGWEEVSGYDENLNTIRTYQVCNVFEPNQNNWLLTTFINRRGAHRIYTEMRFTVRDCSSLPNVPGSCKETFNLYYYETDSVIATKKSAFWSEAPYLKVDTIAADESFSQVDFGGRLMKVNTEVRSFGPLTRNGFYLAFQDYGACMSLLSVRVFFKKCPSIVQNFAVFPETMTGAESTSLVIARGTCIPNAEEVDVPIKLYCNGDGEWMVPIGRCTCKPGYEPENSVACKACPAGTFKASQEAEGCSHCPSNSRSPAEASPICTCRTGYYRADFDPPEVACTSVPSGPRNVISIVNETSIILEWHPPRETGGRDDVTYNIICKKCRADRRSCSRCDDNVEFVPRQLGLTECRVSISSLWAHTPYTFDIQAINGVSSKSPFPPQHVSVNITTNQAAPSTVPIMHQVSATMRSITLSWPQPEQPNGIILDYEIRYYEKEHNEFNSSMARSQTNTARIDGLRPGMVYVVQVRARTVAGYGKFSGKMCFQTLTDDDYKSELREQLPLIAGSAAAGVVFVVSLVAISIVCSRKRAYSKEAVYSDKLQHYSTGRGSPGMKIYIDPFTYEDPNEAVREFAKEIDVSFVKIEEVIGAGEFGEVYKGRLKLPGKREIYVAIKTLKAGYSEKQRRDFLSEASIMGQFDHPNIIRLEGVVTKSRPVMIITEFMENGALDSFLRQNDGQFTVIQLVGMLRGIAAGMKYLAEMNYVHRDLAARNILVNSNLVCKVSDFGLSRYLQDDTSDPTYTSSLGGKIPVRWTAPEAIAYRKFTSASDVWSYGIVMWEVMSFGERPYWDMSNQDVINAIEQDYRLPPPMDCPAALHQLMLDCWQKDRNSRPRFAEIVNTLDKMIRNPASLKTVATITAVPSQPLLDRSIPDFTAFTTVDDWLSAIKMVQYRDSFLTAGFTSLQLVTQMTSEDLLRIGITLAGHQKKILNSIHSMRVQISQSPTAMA

Going from SEASGYQDNIA [DES_Y363] to NPQKSYFIHLF [WAS_Y83_R86H_YF], the phosphorylation enrichment rises from 0.52 to 0.644.

First: KWHREYNFKFV [RICTOR_Y835_S837F_YF]
Second: RRAKGYPIYLY [ITGB2_Y125_D128Y]
The phosphorylation enrichment of the first is higher: 0.488 for the first, 0.44 for the second.

Going from SVTRTYSPALN [TP53_Y126_C124R] to FPRTGYSVPFG [TGM1_Y370_L366P_YF], the phosphorylation enrichment rises from 0.313 to 0.493.

Compared with QAQMDYRRWQP [MPL_Y591_L594W], RLIEGYTGPFK [ZNF862_Y181] is higher in phosphorylation enrichment: 0.523 for the first, 1.07 for the second.

First: TEFIQYVRRKN [MAX_Y73_M74V_YF]
Second: NPQKSYLIRLY [WAS_Y83_F84L]
The phosphorylation enrichment of the first is lower: 0.48 for the first, 0.603 for the second.

First: PFTRNYYVRAV [CYBA_Y87]
Second: SLTCTYSPALN [TP53_Y126_V122L]
The phosphorylation enrichment of the first is lower: 0.753 for the first, 0.924 for the second.

Going from YFRDGCMPRQY [GSS_Y270_Y270C] to RHLREYPDLLN [DES_Y388_Q389P], the phosphorylation enrichment falls from 0.602 to 0.375.

Going from IGNGFYFHVFS [MYBPC3_Y1136_R1138H_YF] to DRLAVYIDRVP [LMNA_Y45_R50P], the phosphorylation enrichment rises from 0.639 to 0.682.

Compared with DRLASYSDKVR [KRT10_Y160_L161S], RVYRDYVLKSA [HTATIP2_Y111_D108Y] is higher in phosphorylation enrichment: 0.366 for the first, 1.01 for the second.

Going from RLLVVYPRTQR [HBB_Y36_W38R] to FAELVYTVFWH [ASS1_Y322_G324V], the phosphorylation enrichment rises from 0.457 to 2.33.

Going from ELQDDYEDMME [SLC4A1_Y8] to DEEDTYTMPST [PTK2_Y407], the phosphorylation enrichment falls from 0.646 to 0.528.

Going from AIDVGYRHIDC [AKR1B1_Y40] to LLTKVYVVEGS [ZMPSTE24_Y253_P248L], the phosphorylation enrichment rises from 0.419 to 0.816.

First: YEHVGYTTLNR [CHN1_Y148]
Second: KAWTIYHPEDS [ZBP1_Y165_R166H]
The phosphorylation enrichment of the first is higher: 0.616 for the first, 0.559 for the second.

Going from NYGTNYRVGSS [CPO_Y278_K273N] to VSSIPYGQPKQ [NEU1_Y251_G248S], the phosphorylation enrichment rises from 0.493 to 0.555.

Compared with PVQAAYEKVVA [HBB_Y131_Q132E], HFGCVYLGTLL [MET_Y1093_H1094L] is higher in phosphorylation enrichment: 0.744 for the first, 1.02 for the second.

Going from RHLREYQDLLI [DES_Y388_N393I] to SDRNLYSKNLV [CFAP58_Y501], the phosphorylation enrichment falls from 1.02 to 0.268.

With HNQDGYSYPSR [LDLR_Y845] the phosphorylation enrichment was 0.55.

What follows are sequences tested against EPHB2 (UniProt P29323) in the same assay as above.
EPHB2, sequence (P29323 whole entry, looked up): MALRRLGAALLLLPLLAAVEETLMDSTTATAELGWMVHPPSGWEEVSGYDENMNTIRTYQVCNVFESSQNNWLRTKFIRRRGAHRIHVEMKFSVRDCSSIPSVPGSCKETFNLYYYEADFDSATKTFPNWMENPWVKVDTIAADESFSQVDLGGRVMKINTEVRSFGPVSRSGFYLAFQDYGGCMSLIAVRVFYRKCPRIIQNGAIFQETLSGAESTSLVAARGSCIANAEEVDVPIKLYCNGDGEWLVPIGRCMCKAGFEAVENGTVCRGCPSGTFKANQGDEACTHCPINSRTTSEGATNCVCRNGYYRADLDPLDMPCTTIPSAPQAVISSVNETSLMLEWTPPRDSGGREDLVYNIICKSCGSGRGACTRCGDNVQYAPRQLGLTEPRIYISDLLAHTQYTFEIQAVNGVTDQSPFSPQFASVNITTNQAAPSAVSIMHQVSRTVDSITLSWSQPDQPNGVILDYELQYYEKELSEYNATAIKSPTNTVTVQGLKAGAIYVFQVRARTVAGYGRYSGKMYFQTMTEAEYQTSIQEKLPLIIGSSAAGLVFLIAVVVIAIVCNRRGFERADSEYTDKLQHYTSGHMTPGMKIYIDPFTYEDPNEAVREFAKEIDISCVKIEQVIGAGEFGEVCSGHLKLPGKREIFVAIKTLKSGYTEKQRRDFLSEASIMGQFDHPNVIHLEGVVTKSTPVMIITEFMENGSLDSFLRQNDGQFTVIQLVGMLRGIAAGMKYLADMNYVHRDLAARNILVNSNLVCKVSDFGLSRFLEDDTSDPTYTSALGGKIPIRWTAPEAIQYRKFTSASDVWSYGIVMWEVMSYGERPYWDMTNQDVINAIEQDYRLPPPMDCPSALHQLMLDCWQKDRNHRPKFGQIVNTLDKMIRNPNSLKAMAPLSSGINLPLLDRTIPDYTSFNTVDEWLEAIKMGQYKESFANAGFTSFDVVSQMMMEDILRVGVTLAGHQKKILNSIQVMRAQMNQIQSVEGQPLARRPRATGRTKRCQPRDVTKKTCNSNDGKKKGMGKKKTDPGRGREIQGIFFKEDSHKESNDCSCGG

First: SEASGYQDNIA [DES_Y363]
Second: NPQKSYFIHLF [WAS_Y83_R86H_YF]
The phosphorylation enrichment of the first is lower: 0.485 for the first, 0.512 for the second.

First: KWHREYNFKFV [RICTOR_Y835_S837F_YF]
Second: RRAKGYPIYLY [ITGB2_Y125_D128Y]
The phosphorylation enrichment of the first is lower: 0.531 for the first, 0.624 for the second.

First: SVTRTYSPALN [TP53_Y126_C124R]
Second: FPRTGYSVPFG [TGM1_Y370_L366P_YF]
The phosphorylation enrichment of the first is lower: 0.378 for the first, 0.504 for the second.

Going from QAQMDYRRWQP [MPL_Y591_L594W] to RLIEGYTGPFK [ZNF862_Y181], the phosphorylation enrichment rises from 0.539 to 0.927.

First: TEFIQYVRRKN [MAX_Y73_M74V_YF]
Second: NPQKSYLIRLY [WAS_Y83_F84L]
The phosphorylation enrichment of the first is higher: 0.551 for the first, 0.49 for the second.

First: PFTRNYYVRAV [CYBA_Y87]
Second: SLTCTYSPALN [TP53_Y126_V122L]
The phosphorylation enrichment of the first is higher: 1.41 for the first, 0.882 for the second.

First: YFRDGCMPRQY [GSS_Y270_Y270C]
Second: RHLREYPDLLN [DES_Y388_Q389P]
The phosphorylation enrichment of the first is higher: 0.552 for the first, 0.463 for the second.

Going from IGNGFYFHVFS [MYBPC3_Y1136_R1138H_YF] to DRLAVYIDRVP [LMNA_Y45_R50P], the phosphorylation enrichment rises from 0.643 to 0.719.

First: DRLASYSDKVR [KRT10_Y160_L161S]
Second: RVYRDYVLKSA [HTATIP2_Y111_D108Y]
The phosphorylation enrichment of the first is lower: 0.365 for the first, 0.76 for the second.

First: RLLVVYPRTQR [HBB_Y36_W38R]
Second: FAELVYTVFWH [ASS1_Y322_G324V]
The phosphorylation enrichment of the first is lower: 0.81 for the first, 2.94 for the second.

Compared with ELQDDYEDMME [SLC4A1_Y8], DEEDTYTMPST [PTK2_Y407] is higher in phosphorylation enrichment: 0.558 for the first, 0.627 for the second.

Going from AIDVGYRHIDC [AKR1B1_Y40] to LLTKVYVVEGS [ZMPSTE24_Y253_P248L], the phosphorylation enrichment rises from 0.531 to 0.994.

First: YEHVGYTTLNR [CHN1_Y148]
Second: KAWTIYHPEDS [ZBP1_Y165_R166H]
The phosphorylation enrichment of the first is higher: 0.758 for the first, 0.547 for the second.

Compared with NYGTNYRVGSS [CPO_Y278_K273N], VSSIPYGQPKQ [NEU1_Y251_G248S] is lower in phosphorylation enrichment: 0.681 for the first, 0.345 for the second.

Compared with PVQAAYEKVVA [HBB_Y131_Q132E], HFGCVYLGTLL [MET_Y1093_H1094L] is higher in phosphorylation enrichment: 0.345 for the first, 1.1 for the second.

First: RHLREYQDLLI [DES_Y388_N393I]
Second: SDRNLYSKNLV [CFAP58_Y501]
The phosphorylation enrichment of the first is higher: 0.744 for the first, 0.38 for the second.

In the case of HNQDGYSYPSR [LDLR_Y845], the phosphorylation enrichment is reported as 0.584.

The sequences below were run against FGFR1 (UniProt P11362) in the same assay as above.
FGFR1, sequence (P11362 whole entry, looked up): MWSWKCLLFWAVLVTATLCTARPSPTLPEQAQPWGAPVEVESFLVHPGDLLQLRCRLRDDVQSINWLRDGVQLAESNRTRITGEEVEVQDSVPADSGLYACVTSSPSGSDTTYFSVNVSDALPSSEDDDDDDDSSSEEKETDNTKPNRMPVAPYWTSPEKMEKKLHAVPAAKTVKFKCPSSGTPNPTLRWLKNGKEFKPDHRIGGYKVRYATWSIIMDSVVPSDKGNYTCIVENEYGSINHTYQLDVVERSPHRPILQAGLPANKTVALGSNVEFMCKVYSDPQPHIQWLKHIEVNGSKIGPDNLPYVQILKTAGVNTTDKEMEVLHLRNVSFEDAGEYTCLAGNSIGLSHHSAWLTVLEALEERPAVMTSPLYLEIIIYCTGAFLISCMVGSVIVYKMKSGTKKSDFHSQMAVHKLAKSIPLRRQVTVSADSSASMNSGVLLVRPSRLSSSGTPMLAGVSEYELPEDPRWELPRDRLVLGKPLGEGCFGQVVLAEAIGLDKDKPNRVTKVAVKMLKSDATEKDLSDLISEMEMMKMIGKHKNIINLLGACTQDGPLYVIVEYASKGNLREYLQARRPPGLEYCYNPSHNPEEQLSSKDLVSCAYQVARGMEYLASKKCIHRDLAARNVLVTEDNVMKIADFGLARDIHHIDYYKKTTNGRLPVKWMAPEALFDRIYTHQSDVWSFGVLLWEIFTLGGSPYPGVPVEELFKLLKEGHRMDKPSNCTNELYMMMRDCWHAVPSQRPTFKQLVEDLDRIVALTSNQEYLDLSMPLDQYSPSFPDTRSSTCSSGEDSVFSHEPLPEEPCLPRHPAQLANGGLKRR

Compared with SEASGYQDNIA [DES_Y363], NPQKSYFIHLF [WAS_Y83_R86H_YF] is higher in phosphorylation enrichment: 0.441 for the first, 0.475 for the second.

Compared with KWHREYNFKFV [RICTOR_Y835_S837F_YF], RRAKGYPIYLY [ITGB2_Y125_D128Y] is higher in phosphorylation enrichment: 0.474 for the first, 0.59 for the second.

Compared with SVTRTYSPALN [TP53_Y126_C124R], FPRTGYSVPFG [TGM1_Y370_L366P_YF] is lower in phosphorylation enrichment: 0.394 for the first, 0.379 for the second.

First: QAQMDYRRWQP [MPL_Y591_L594W]
Second: RLIEGYTGPFK [ZNF862_Y181]
The phosphorylation enrichment of the first is lower: 0.402 for the first, 1.13 for the second.

First: TEFIQYVRRKN [MAX_Y73_M74V_YF]
Second: NPQKSYLIRLY [WAS_Y83_F84L]
The phosphorylation enrichment of the first is higher: 0.74 for the first, 0.471 for the second.

Compared with PFTRNYYVRAV [CYBA_Y87], SLTCTYSPALN [TP53_Y126_V122L] is lower in phosphorylation enrichment: 0.704 for the first, 0.66 for the second.

First: YFRDGCMPRQY [GSS_Y270_Y270C]
Second: RHLREYPDLLN [DES_Y388_Q389P]
The phosphorylation enrichment of the first is higher: 0.6 for the first, 0.584 for the second.

Going from IGNGFYFHVFS [MYBPC3_Y1136_R1138H_YF] to DRLAVYIDRVP [LMNA_Y45_R50P], the phosphorylation enrichment falls from 0.472 to 0.451.

Going from DRLASYSDKVR [KRT10_Y160_L161S] to RVYRDYVLKSA [HTATIP2_Y111_D108Y], the phosphorylation enrichment rises from 0.454 to 0.833.

Going from RLLVVYPRTQR [HBB_Y36_W38R] to FAELVYTVFWH [ASS1_Y322_G324V], the phosphorylation enrichment rises from 0.685 to 4.39.

Going from ELQDDYEDMME [SLC4A1_Y8] to DEEDTYTMPST [PTK2_Y407], the phosphorylation enrichment rises from 0.566 to 0.568.

First: AIDVGYRHIDC [AKR1B1_Y40]
Second: LLTKVYVVEGS [ZMPSTE24_Y253_P248L]
The phosphorylation enrichment of the first is lower: 0.476 for the first, 0.9 for the second.

First: YEHVGYTTLNR [CHN1_Y148]
Second: KAWTIYHPEDS [ZBP1_Y165_R166H]
The phosphorylation enrichment of the first is higher: 0.725 for the first, 0.432 for the second.

Compared with NYGTNYRVGSS [CPO_Y278_K273N], VSSIPYGQPKQ [NEU1_Y251_G248S] is higher in phosphorylation enrichment: 0.357 for the first, 0.39 for the second.

First: PVQAAYEKVVA [HBB_Y131_Q132E]
Second: HFGCVYLGTLL [MET_Y1093_H1094L]
The phosphorylation enrichment of the first is lower: 0.786 for the first, 0.925 for the second.

Going from RHLREYQDLLI [DES_Y388_N393I] to SDRNLYSKNLV [CFAP58_Y501], the phosphorylation enrichment falls from 0.899 to 0.325.

HNQDGYSYPSR [LDLR_Y845] gave a phosphorylation enrichment of 0.614.
